The values that follow come from PMC7199855, “GRAF2, WDR44, and MICAL1 mediate Rab8/10/11–dependent export of E-cadherin, MMP14, and CFTR ΔF508” (The Journal of Cell Biology, 2020).

In one experiment the target is T1, GST–MICAL1 ΔMOΔCH (human, UniProt Q8TDZ2 651-1067).
T1 construct: aa 651–1067 of human MICAL1; source: E. coli BL21(DE3) pLysS, purified on glutathione sepharose beads; not shown: GST, N-terminal, kept
T1 sequence (looked up): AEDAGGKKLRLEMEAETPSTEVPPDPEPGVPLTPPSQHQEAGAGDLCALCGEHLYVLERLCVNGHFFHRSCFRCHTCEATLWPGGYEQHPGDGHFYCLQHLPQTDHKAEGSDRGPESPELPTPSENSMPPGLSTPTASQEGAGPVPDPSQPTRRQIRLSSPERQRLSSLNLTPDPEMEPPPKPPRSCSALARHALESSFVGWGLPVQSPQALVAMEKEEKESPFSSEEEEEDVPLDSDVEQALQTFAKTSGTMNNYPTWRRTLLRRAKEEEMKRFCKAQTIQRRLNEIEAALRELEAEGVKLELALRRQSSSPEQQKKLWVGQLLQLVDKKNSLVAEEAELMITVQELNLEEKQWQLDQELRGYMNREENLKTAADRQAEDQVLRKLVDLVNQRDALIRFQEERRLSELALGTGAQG
Kind of experiment: pull-down; in vitro: GST-tagged WDR44 or MICAL1 domains on glutathione sepharose beads with an equal amount of Thrombin-released GRAF2 SH3, 30 min 4°C, washed in bacterial lysis buffer (20 mM Hepes pH 7.4, 1 mM DTT, NaCl); Coomassie staining. Conditions: both partners purified.

The target in a further experiment is T2, GST–WDR44 ΔC (human, UniProt Q5JSH3 1-472).
T2 construct: aa 1–472 of human WDR44 (N-tag clone: forward primer begins at codon 2); source: E. coli BL21(DE3) pLysS, purified on glutathione sepharose beads; not shown: GST, N-terminal, kept
T2 sequence (looked up): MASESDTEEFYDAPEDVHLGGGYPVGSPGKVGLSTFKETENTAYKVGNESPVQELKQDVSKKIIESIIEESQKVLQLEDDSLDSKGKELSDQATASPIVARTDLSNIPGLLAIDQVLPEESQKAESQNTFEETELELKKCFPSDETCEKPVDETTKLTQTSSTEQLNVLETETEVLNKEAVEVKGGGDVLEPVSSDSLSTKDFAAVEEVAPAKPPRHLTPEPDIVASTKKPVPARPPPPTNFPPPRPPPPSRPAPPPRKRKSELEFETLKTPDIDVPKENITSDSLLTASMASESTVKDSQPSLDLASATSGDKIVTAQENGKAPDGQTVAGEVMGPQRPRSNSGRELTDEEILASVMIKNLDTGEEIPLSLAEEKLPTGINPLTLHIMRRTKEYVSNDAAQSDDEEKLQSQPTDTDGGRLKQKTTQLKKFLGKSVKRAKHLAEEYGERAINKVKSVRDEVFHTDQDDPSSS
Described as above. Conditions: both partners purified.

B1: GRAF2 SH3 (released from GST by Thrombin) (domain or fragment, human, UniProt A1A4S6 718-786, looked up)
chain: ATVADKPPESIRSRKARAVYPCEAEHSSELSFEIGAIFEDVQTSREPGWLEGTLNGKRGLIPQNYVKLL
notes: SH3 domain construct, aa 718–786 of human GRAF2; same construct as m2 with GST cut off; source: E. coli BL21(DE3) pLysS; released from GST-GRAF2 SH3 beads with Thrombin; not shown: GST, N-terminal, cleaved
On to B1, for which the binding result with GST–MICAL1 ΔMOΔCH and with GST–WDR44 ΔC was “binds” each time.
